This is an account of results in PMC9135441.

In data set [1] the test system is O=C[C@H](O)[C@@H](O)[C@H](O)[C@@H](O)CO. The experiment in a line: purified protein. Conditions: NADPH.
Data set [2] concerns CCCCCC(O)C=CC=O. Description: purified protein. Conditions: NADPH.

Usually Km stands for the concentration of substrate that gives half-maximal velocity. Take “aldose reductase (AKR1B1) (Homo sapiens)”: the Km was 4260 ± 350 µM in data set [1] and 51 ± 5 µM in data set [2].
